T1: MMP-7 (Homo sapiens, UniProt P09237)
T1 sequence (P09237 95-267): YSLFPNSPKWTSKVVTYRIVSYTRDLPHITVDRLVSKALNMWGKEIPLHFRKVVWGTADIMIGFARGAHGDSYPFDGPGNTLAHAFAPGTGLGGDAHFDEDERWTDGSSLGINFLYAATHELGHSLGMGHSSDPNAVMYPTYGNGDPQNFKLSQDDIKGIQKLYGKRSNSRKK


Experiments:
IGF-I = IGF-I (Homo sapiens, UniProt P05019); experiment: Affinity for IGF-I: competition with 125I-IGF-1 tracer, Scatchard analysis; format: binding; details: association constant, IGF-I competitor
Method: (§1) The affinity of wild type (wt) IGFBP-3 and of mutated IGFBP-3 (mini-IGFBP-3) for IGF-I and IGF II was determined using ^125I-IGF-1 as a radioactive tracer. Various concentrations of IGF-I and IGF-II were used as competitors and affinity constants were determined by Scatchard analysis.

IGF-II [1] = molecular target: T2, IGF-II (Homo sapiens, UniProt P01344); experiment: Affinity for IGF-II: competition with 125I-IGF-1 tracer, Scatchard analysis; format: binding; details: association constant, IGF-II competitor
T2 construct: before undergoing regulated endoproteolytic cleavage to the mature form (IGF-II)
T2 sequence (P01344 25-91 limits assumed): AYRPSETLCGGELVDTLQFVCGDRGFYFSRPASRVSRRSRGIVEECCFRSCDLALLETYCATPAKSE
Method: as §1

MMP-7 = molecular target: T1, MMP-7; experiment: Proteolytic digestion by activated MMP-7 (SDS-PAGE); format: biochemical; details: substrate 20 μM, 1:10 molar ratio, enzyme activated with 1 mM APMA
Method: (§2) The ability of mini-IGFBP-3 to resist proteolytic digestion by Matrix Metalloproteinases, MMP-7 and MMP-9, is also currently being tested. MMP-7 and MMP-9 are expressed by tumor cells and are present in higher quantity in the bloodstream of cancer patients where they contribute to the degradation of native, endogenous IGFBP-3. In the experiments, these enzymes are first activated with 1 mM APMA. Mini-IGFBP-3 and full length IGFBP-3 are compared as substrate for activated MMP-7 and MMP-9. Concentrations of each substrate (20 μM) are incubated in a 1:10 molar ratio with either MMP-7 or MMP-9. At the end of the incubation period, proteins are analyzed by SDS-PAGE to evaluate their respective cleavage into fragments.

MMP-9 = MMP-9 (Homo sapiens, UniProt P14780); experiment: Proteolytic digestion by activated MMP-9 (SDS-PAGE); format: biochemical; details: substrate 20 μM, 1:10 molar ratio, enzyme activated with 1 mM APMA
MMP-9, sequence (P14780 107-707 limits assumed): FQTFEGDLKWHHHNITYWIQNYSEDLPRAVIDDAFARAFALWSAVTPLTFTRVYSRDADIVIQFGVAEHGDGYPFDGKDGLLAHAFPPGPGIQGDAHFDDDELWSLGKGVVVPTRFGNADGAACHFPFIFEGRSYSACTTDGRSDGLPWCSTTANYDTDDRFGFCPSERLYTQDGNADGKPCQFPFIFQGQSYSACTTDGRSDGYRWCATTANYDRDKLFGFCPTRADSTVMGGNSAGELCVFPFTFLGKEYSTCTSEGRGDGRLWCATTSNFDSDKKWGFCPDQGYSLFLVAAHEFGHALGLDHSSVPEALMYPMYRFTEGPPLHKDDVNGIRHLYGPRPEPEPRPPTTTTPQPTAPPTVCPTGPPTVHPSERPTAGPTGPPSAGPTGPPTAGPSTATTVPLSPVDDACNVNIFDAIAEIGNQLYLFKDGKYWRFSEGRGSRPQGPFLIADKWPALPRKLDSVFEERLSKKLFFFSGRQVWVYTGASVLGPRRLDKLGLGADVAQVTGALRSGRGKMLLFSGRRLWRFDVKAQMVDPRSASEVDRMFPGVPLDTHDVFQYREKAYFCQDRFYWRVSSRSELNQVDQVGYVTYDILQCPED
Method: as §2

[2] = system: AKT phosphorylation in A549 (lung cancer); experiment: AKT phosphorylation, A549 cells; format: cell-based, human; details: different incubation times
Method: (§3) These effects are compared to those of ppp (see Example 5 for experimental details). FIG. 11(B) is a graph showing the effects of mini-IGFBP-3-Fc on the phosphorylation of AKT in MiaPaCa-2 cells (upper left), HT-29 cells (upper right) and A549 cells (lower left) and of […] on the phosphorylation of AKT in A549 cells (lower right) after different incubation times, as indicated (see Example 5 for experimental details).
(§4) The inhibiting activity of mini-IGFBP-3-Fc on AKT phosphorylation was also assessed in various human tumor cell lines: MiaPaCa-2 (pancreatic cancer), HT-29 (colon cancer) and A549 (lung cancer). The inhibiting activity of mini-IGFBP-3 on AKT phosphorylation was assessed A549 cells.

[3] = Decay of concentrations in mouse plasma after intravenous injection (ELISA); format: in vivo; details: mice, 250 μg intravenously
Method: 250 μg of the indicated protein were injected intravenously to groups (n=3) of mice at time zero. Blood samples were drawn at the indicated time points, centrifuged and kept frozen. Concentrations of injected proteins were determined by an in-house sandwich type ELISA using anti-human IGFBP-3 specific monoclonal antibodies.
To pave the ground for future assessments of mini-IGFBP-3 in vivo activity, mini-IGFBP-3 and its derivatives were injected into mice. When measured using human-specific IGFBP-3 ELISA test, several kinetics could be observed.

[4] = system: HT-29 human colorectal tumor xenografts; experiment: Tumor signalling in mice bearing HT-29 xenografts, 12 hours treatment (western immunoblots); format: in vivo, NMRI-nu mice; details: three i.p. injections (340 μg) every 3 hours, sacrifice at 12 hours; for Erk1/2 phosphorylation in tumors / Rb phosphorylation in tumors: vs untreated
Method: Thus, HT-29 xenografts were established in nude mice. After tumor had reached a critical size, mice were treated with either mini-IGFBP-3 or mini-IGFBP3-Fc in three i.p. injections separated by a three hours interval and mice were sacrificed after […]. Tumor MEK and PI3Kinase signalling pathways were assessed in these tumors, together with the cell cycle regulator Rb, by evaluating the phosphorylation status of AKT, ERK-1/2 and Rb, respectively, using western immunoblots.
More specifically, 2.5×10^6 HT-29 cells were injected s.c. into each flank of 5 weeks old NMRI-nu mice. Tumors were allowed to grow up to a volume of 500 mm^3 before mice were randomized into individual treatment groups (n=2) and received three i.p. injections (340 μg) of either mini-IGFBP-3 or mini-IGFBP-3-Fc every 3 hours. The control group was injected with saline. Twelve (12) hours after treatment initiation, mice were sacrificed and excised tumors were cut in half. One half was snap frozen in liquid nitrogen and stored at −80° C. The other half was fixed in Finfix, included in paraffin and processed for immuno-histochemistry. For Western blot analysis, tumors were homogenized in lysis buffer (10 mM Tris HCl at pH 7.4, 150 mM NaCl, 1% Nonidet P-40, 0.1% sodium deoxycholate, 0.1% SDS, 1 mM EDTA, 2 mM sodium orthovanadate, protease inhibitor tablet [Roche Molecular Biochemicals]). After centrifugation, protein concentrations were determined by the Bio-Rad protein assay (Bio-Rad). Fifteen micrograms of protein were run on a 4%-12% SDS-PAGE gel (Invitrogen). Membranes were blocked in 5% nonfat milk in TBS-T overnight at 4° C., washed with TBS-T, incubated with anti-mouse or anti-rabbit horseradish peroxidase-conjugated secondary antibodies in TBS-T for 1 hour at room temperature, and washed in TBS-T. The signal was visualized using an enhanced chemiluminescence solution and exposed to film. The blotting antibodies used wherein phosphor-Akt, Akt, mitogen-activated protein kinase ERK1/2, phosphor-mitogen-activated protein kinase pErk1/2, Rb (BD Biosciences), β-actin and G3PDH; antibodies were from Cell Signalling Technology unless otherwise stated.

IGF-II [5] = molecular target: T2, IGF-II; experiment: Solid-phase assay: displacement of biotinylated IGF-II tracer from immobilized binding protein; details: increasing free IGF-II
Text: FIG. 10(A) is a graph showing the relative binding affinity of mini-IGFBP-3 and mini-IGFBP-3-Fc towards IGF-II. The solid phase assay used measured the ability of increasing concentrations of free IGF-II to displace binding of the biotinylated IGF-II tracer to mini-IGFBP-3 and mini-IGFBP-3-Fc immobilized on a support (See Example 5 for experimental details). FIG. 10(B) is a graph showing the effects of mini-IGFBP-3-Fc on proliferation and survival of three human tumor cell lines cultivated in the presence of 10% FCS: Hep3B, HuH7 and INA-6. The effects of mini-IGFBP-3-Fc are compared to the effects of picropodophyllin (ppp), a compound known to interfere with IGF-R signalling pathway (see Example 5 for experimental details).
A solid-phase assay was used to study the binding affinity of mini-IGFBP-3-Fc for IGF-II. In this assay, two binding proteins (mini-IGFBP-3 and mini-IGFBP-3-Fc) were immobilized to a support. They were incubated with the biotinylated IGF-II tracer, and then increasing concentrations of IGF-II were added.

Hep3B = experiment: Cell viability assay (WST-1), Hep3B; format: cell-based, human; details: 100 nM, 72 hours, 10% FCS
Method: (§5) The effects of mini-IGFBP-3-Fc on the proliferation and survival of three human tumor cell lines, Hep3B and HuH7—hepatocellular carcinoma cell lines) and INA-6 (multiple myeloma cell line), were studied. For each cell line cultivated in the presence of 10% fetal calf serum (FCS), the effect of mini-IGFBP-3-Fc were compared to the effect picropodophyllin (ppp), a compound known to interfere with the IGF1-R signalling pathway. A cell viability assay was performed 72 hours after initiation of the culture in the presence of mini-IGFVP-3-Fc (100 nM) or ppp (1 μM) in a medium containing 10% FCS by adding WST-1 and monitoring formazan conversion.

HuH7 = experiment: Cell viability assay (WST-1), HuH7; format: cell-based, human; details: 100 nM, 72 hours, 10% FCS
Method: as §5

INA-6 = experiment: Cell viability assay (WST-1), INA-6; format: cell-based, human; details: 100 nM, 72 hours, 10% FCS
Method: as §5

[6] = system: phosphorylation of AKT in INA-6 myeloma cells; experiment: AKT phosphorylation, INA-6 myeloma cells (western blot); format: cell-based; details: 100 nm; 3, 6 or 24 hours; 10% FCS
Method: The INA-6 myeloma cell line was grown in the presence of 10% FCS. The cells were incubated with mini-IGFBP-3 (100 nm) or ppp (1 μM) 3, 6 or 24 hours. After incubation, the cells were lysed using a lysis buffer, and cell extracts (normalized for protein contents) were loaded on SDS-PAGE gel, transferred onto nitrocellulose membrane, which was further incubated with a monoclonal antibody directed against the […] residue of the AKT protein. The membrane was also re-probed after stripping with an anti-actin antibody to check for equal loading.

[7] = system: AKT phosphorylation in MiaPaCa-2 (pancreatic cancer); experiment: AKT phosphorylation, MiaPaCa-2 cells; format: cell-based, human; details: different incubation times
Method: as §3, §4

[8] = system: AKT phosphorylation in HT-29 (colon cancer); experiment: AKT phosphorylation, HT-29 cells; format: cell-based, human; details: different incubation times
Method: as §3, §4

IGF-I, sequence (P05019 49-118 limits assumed): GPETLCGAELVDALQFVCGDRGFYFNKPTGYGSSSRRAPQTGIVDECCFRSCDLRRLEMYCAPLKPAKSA

| Molecule | affinity constant for IGF-I (IGF-I) [M⁻¹] | affinity constant for IGF-II (IGF-II [1]) [M⁻¹] | cleavage by MMP-7 (MMP-7) | cleavage by MMP-9 (MMP-9) | AKT phosphorylation in A549 cells [2] | fraction of the initial dose that left the bloodstream in the first 3-4 hours [3] | remaining fraction that disappeared very slowly until 48 hours [3] | AktS473 phosphorylation in tumors [4] | mitotic index compared to untreated tumors [4] [%] | Erk1/2 phosphorylation in tumors [4] | Rb phosphorylation in tumors [4] | apparent affinity for IGF-II compared with unfused mini-IGFBP-3 (IGF-II [5]) | proliferation and survival of Hep3B (Hep3B) | proliferation and survival of HuH7 (HuH7) | proliferation and survival of INA-6 (INA-6) | phosphorylation of AKT in INA-6 cells [6] | AKT phosphorylation in MiaPaCa-2 cells [7] | AKT phosphorylation in HT-29 cells [8] | half-life of serum concentration ([3]; single slope kinetics) |
| --- | --- | --- | --- | --- | --- | --- | --- | --- | --- | --- | --- | --- | --- | --- | --- | --- | --- | --- | --- |
| wt IGFBP-3: Recombinant wild type human IGFBP-3 with hexahistidine N-terminal extension, comparator [reference compound] | 2.96e+10 | 3.5e+10 | digested | digested | – | – | – | – | – | – | – | – | – | – | – | – | – | – | – |
| mini-IGFBP-3: Human IGFBP-3 mutein: 85 central-domain residues (95 to 179) replaced by 15 amino acid spacer GGGSGGSGGSGGSGG (SEQ ID NO: 4) | 2.4e+10 | 3.14e+10 | resists this proteolytic attack | resists this proteolytic attack | able to block the AKT phosphorylation | 80-90% | 10-20% | abolished | −12 | considerably decreased | decreased | – | – | – | – | – | – | – | – |
| mini-IGFBP-3-Fc: Immunoadhesin fusion protein joining mini-IGFBP-3 to the Fc fragment of human IgG1 (protein, left off: a dimerising Fc or GST, Immunoadhesin fusion protein joining mini-IGFBP-3 to the Fc fragment of human IgG1) GASSAGLGPVVRCEPCDARALAQCAPPPAVCAELVREPGCGCCLTCALSEGQPCGIYTERCGSGLRCQPSPDEARPLQALLDGRGLCVNASAVSGGGSGGSGGSGGSGGETEYGPCRREMEDTLNHLKFLNVLSPRGVHIPNCDKKGFYKKKQCRPSKGRKRGFCWCVDKYGQPLPGYTTKGKEDVHCYSMQSK | – | – | – | – | able to block the AKT phosphorylation | – | – | abolished | −12 | considerably decreased | decreased | higher apparent affinity | anti-proliferative activity | anti-proliferative activity | anti-proliferative activity | inhibiting effects | able to block the AKT phosphorylation | able to block the AKT phosphorylation | about 12 hours |

Reference: patent US9878016B2, “IGFBP-3 derivatives and uses thereof” (INSERM (Institut National de la Sante et de la Recherche …, priority 2011, dated 2018)
